Consider 3 molecules from article PMC9599101 (Biosensors, 2022).

Assay [1] concerns the target T1, recombinant SEB produced by BEVS (staphylococcal enterotoxin B, 6x His-tagged) (Staphylococcus aureus., UniProt P01552).
T1 construct: not shown: His6, C-terminal, kept
Briefly: ELISA. As to conditions: both partners purified. (An ELISA detects its analyte on a solid surface through an enzyme-linked reagent.)

In assay [2] the target is T1, recombinant SEB produced by BEVS …. Description: BLI. The following applies: both partners purified.
Assay [3] deals with natural SEB secreted from S. aureus strain SA2 (Staphylococcus aureus SA2 (bovine …, UniProt P01552, strain)). Briefly: ELISA. As to conditions: one partner purified.
Assay [4] concerns the target natural SEB secreted from S. aureus strain CCARM 3089 (Staphylococcus aureus CCARM 3089, UniProt P01552, strain). Briefly: ELISA. As to conditions: one partner purified.

B1: anti-SEB monoclonal antibody 2-7A (antibody, V domains shown)
VH: EVLLVESGGGLVQPGGSLRLSCATSGFTFTDYYMSWVRQPPGKALEWLGFIRNKANGYTTKYSASVKGRFTISRDNSQSILYLQMNTLRAEDSATYYCAKDNWEAYFDYWGQGTTLTVSS
VL: DVVMTQTPLSLPVSLGDQASISCRSSQSIVHSNGNTYLEWYLQKPGQSPKLLIYKVSNRFSGVPDRFSGSGSGTDFTLKISRVEAEDLGVYYCFQGSHVPWTFGGGTKLELK
notes: also called 2-7A mAb
Regarding B1, the EC50 (in general, the concentration that produces a half-maximal response) in assay [1] worked out at 13.5 nM. Further, in assay [2], the Kd (usually the concentration at which binding is half-saturated) was found to be 0.55 nM; the off-rate (koff) – broadly, the first-order rate constant of dissociation – was determined as 7.02e-05 s⁻¹; the kon (commonly a measure of how fast the partners come together) came out at 128000 M⁻¹ s⁻¹.

B2: anti-SEB monoclonal antibody 4-7A (antibody, V domains shown)
VH: QVQMQQSGAELVRPGASVKLSCKASGYTFTNNWMNWVKQRPGQGLQWIGMIDPSDSETHYNQMFKDKASLTVDKSSSSAYMVLSSLTSEDSAVYYCARRALSYYGSNPTLFDYWGQGTTLTVSS
VL: DIVMSQSPSSLAVSVGEKVTMSCKSSQSLLYSSNQKNYLAWYQQKPGQSPKLLIYWASTWESGVPDRFTGSGSGTNFTLTINSVKTEDLAVYYCQQYSGYPYTFGGGTKLELK
notes: also called 4-7A mAb
As to B2, the EC50 in assay [1] came out at 14.5 nM. Further, in assay [2], the Kd is 1.55 nM, the dissociation rate constant (koff) came out at 0.000226 s⁻¹ and the kon was 146000 M⁻¹ s⁻¹.

B3: anti-SEB monoclonal antibody 11-7E (antibody, V domains shown)
VH: QVQLKESGPELVRPGVSVKISCKGSGYTFTDYAMHWVKQSHAKSLEWIGIISTYSGNTNYNQKFKAKATMTVDKSSSTAYMELARLTSEDSAIYYCAREGYYGSSRSFDVWGAGTTLTVSS
VL: QIVLTQSPALMSASPGEKVTMTCSASSSVSYMYWYQQKPRSSPKPWIYLTSNLASGVPARFSGSGSGTSYSLTISSMEAEDAATYYCQQWSSNPLTFGAGTKLELK
notes: also called 11-7E mAb
As for B3, in assay [3], the binding result was “binds”. Besides, the half-maximal effective concentration (EC50) in assay [1] stood at 16.7 nM. Moreover, the binding result in assay [4] is reported as “binds”. In addition, in assay [2], the equilibrium dissociation constant (Kd) turned out to be 0.331 nM, the off-rate constant (koff) came to 3.27e-05 s⁻¹ and the kon came to 99000 M⁻¹ s⁻¹.
